Test results from EP4751739A1 (Jiangsu Hengrui Pharmaceuticals Co., Ltd., dated 2025).

Key:
[1] = target: T1, Cynomolgus monkey c-Met protein (cynomolgus monkey); test: SPR (Biacore 8K), ADC captured on Protein A chip, c-Met protein as analyte, 25 °C, 1:1 Langmuir fit
T1 construct: Soluble analyte in Biacore; also called cyno-c-Met

[2] = target: T2, human c-Met on tumor cell lines (human, UniProt P08581 25-1390); test: cell-based or functional assay
[3] = target: T2, human c-Met on tumor cell lines; test: cell-based or functional assay; remark: listed apart in the source
[4] = target: T1, Cynomolgus monkey c-Met protein; test: SPR (Biacore 8K), antibody captured on Protein A chip, c-Met protein as analyte, 25 °C, 1:1 Langmuir fit

T2 sequence (P08581 25-1390): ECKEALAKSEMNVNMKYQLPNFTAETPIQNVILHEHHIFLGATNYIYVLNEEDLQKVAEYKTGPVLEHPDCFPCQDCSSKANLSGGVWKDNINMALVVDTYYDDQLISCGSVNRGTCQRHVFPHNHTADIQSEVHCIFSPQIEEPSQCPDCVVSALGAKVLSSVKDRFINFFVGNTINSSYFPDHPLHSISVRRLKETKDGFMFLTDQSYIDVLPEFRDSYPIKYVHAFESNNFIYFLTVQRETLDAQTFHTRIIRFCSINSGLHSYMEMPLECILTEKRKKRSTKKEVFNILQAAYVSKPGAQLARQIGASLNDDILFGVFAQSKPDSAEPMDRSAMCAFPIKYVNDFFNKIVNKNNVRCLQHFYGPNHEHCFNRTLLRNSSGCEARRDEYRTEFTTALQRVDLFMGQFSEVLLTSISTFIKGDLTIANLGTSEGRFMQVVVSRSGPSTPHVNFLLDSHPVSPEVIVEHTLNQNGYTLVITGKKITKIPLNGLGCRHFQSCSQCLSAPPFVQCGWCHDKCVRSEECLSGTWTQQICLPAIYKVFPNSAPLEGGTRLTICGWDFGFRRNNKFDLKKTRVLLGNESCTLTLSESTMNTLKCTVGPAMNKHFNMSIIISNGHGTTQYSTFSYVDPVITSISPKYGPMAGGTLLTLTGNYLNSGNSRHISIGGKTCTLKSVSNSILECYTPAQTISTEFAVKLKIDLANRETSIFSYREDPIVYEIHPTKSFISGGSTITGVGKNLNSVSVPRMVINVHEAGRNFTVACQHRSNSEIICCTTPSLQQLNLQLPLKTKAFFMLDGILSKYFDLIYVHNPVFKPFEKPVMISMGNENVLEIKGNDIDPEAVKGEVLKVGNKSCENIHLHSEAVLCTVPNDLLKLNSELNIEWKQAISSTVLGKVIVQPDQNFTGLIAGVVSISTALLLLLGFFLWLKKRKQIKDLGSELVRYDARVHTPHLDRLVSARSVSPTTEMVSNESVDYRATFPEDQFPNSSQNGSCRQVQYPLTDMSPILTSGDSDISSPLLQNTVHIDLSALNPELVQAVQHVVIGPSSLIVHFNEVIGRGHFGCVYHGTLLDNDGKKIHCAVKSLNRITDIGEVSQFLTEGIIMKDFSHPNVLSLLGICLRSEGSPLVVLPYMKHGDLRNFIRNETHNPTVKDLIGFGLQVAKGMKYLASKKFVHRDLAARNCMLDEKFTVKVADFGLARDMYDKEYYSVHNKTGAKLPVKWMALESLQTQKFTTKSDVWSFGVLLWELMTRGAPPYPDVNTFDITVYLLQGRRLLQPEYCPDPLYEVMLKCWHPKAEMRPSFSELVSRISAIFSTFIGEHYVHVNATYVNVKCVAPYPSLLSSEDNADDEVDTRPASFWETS

Binder	Kd [1] [nM]	Endocytosis ratio% at 0 h, EBC-1 cells, 20 nM, flow cytometry [2] [%]	Endocytosis ratio% at 0.5 h, EBC-1 cells, 20 nM, flow cytometry [2] [%]	Endocytosis ratio% at 2 h, EBC-1 cells, 20 nM, flow cytometry [2] [%]	Endocytosis ratio% at 4 h, EBC-1 cells, 20 nM, flow cytometry [2] [%]	Endocytosis ratio% at 24 h, EBC-1 cells, 20 nM, flow cytometry [2] [%]	IC50 for the inhibition of proliferation, EBC-1 cells (c-Met expression High), CellTiter Glo, 6 days [3] [nM]	IC50 for the inhibition of proliferation, HCT116 cells (c-Met expression Low), CellTiter Glo, 6 days [3] [nM]	IC50 for the inhibition of proliferation, Hs 746T cells (c-Met expression High), CellTiter Glo, 6 days [3] [nM]	IC50 for the inhibition of proliferation, MKN-45 cells (c-Met expression High), CellTiter Glo, 6 days [3] [nM]	IC50 for the inhibition of proliferation, NCI-H441 cells (c-Met expression Moderate), CellTiter Glo, 6 days [3] [nM]	IC50 for the inhibition of proliferation, NCI-H1299 cells (c-Met expression Low), CellTiter Glo, 6 days [3] [nM]	IC50 for the inhibition of proliferation, NCI-H1993 cells (c-Met expression High), CellTiter Glo, 6 days [3] [nM]	IC50 for the inhibition of proliferation, NCI-N87 cells (c-Met expression Low), CellTiter Glo, 6 days [3] [nM]	IC50 for the inhibition of proliferation, SW480 cells (c-Met expression Low), CellTiter Glo, 6 days [3] [nM]	Kd [4] [nM]
antibody-drug conjugate-1 (ADC-1) (antibody, human IgG2, kappa, V domains shown, compound 9-A may also be coupled to reduced cysteines of this chain; positions not given; compound 9-A (maleimidocaproyl-GGFG linker with exatecan derivative) coupled to cysteines of the TCEP-reduced antibody; positions not given; target DAR n = 5.3, found n = 4.7-5.9 per antibody) VH: QVQLVESGGGVVQPGRSLRLSCAASGFSLSNYGVHWVRQAPGKGLEWLAVIWSGGSTNYAAAFVSRLTISKDNSKNTVYLQMNSLRAEDTAVYYCARNHDNPYNYAMDYWGQGTTVTVSS VL: DIVLTQSPDSLAVSLGERATINCRADKSVSTSTYNYLHWYQQKPGQPPKLLIYLASNLASGVPDRFSGSGSGTDFTLTISSLQAEDVAVYYCQHSRDLPPTFGQGTKLEIKR	48.5	0	30.2	61	80.6	98.2	0.065	23.9	0.125	0.055	0.48	> 200	0.181	> 200	> 200	
Ab-10 humanized antibody (antibody, human IgG2, kappa, V domains shown, Humanized anti-c-Met antibody; Embodiments name human IgG2 and kappa constant regions; also called naked antibody Ab-10; Ab-10 Naked antibody) VH: QVQLVESGGGVVQPGRSLRLSCAASGFSLSNYGVHWVRQAPGKGLEWLAVIWSGGSTNYAAAFVSRLTISKDNSKNTVYLQMNSLRAEDTAVYYCARNHDNPYNYAMDYWGQGTTVTVSS VL: DIVLTQSPDSLAVSLGERATINCRADKSVSTSTYNYLHWYQQKPGQPPKLLIYLASNLASGVPDRFSGSGSGTDFTLTISSLQAEDVAVYYCQHSRDLPPTFGQGTKLEIKR		0	24.5	62.6	83	98.4	0.051	> 200	0.134	0.176	> 200	> 200	0.203	> 200	> 200	47.9
